Paper doi:10.1101/764241
Read-outs that look alike come from different tables or passages of the source.

Assays:
[1] = molecular target: Pythium ultimum Gat1 (Pythium ultimum); assay: AUC
[2] = molecular target: Pythium ultimum Gat1 (Pythium ultimum); assay: AUC; remark: listed apart in the source
[3] = molecular target: Toxoplasma gondii Gat1 (Toxoplasma gondii); assay: SEC + AUC

Row | Substance | stoichiometry N [1] | fold higher dimer affinity than Oc-glycogenin-1 (reported Kd 0.85 µM) [2] [fold] | stoichiometry N [2] | stoichiometry N [3]
1 | Pythium ultimum Gat1 (enzyme) | 2 | > 2 | 2 | –
2 | Toxoplasma gondii Gat1 (enzyme) | – | – | – | 2
